First the molecules themselves.
B1: LINE1-full (parent)
chain: UACGUAGGUGGUUUUCCCCUGAUAGUGCUAAGGGGGCCUGGAAGUUUGGACUGGGCAGAGCUCAACACAGCGUGGCAAAGUGGCUGUGGCUAGACUGCCUCUCUGGAUUCCUCGUCACUCAGCAGGGCAUCUCUGAGAGAAAUGCC

Among the data in the RNAGym collection of RNA variant scans (doi:10.7554/elife.90254) are self-cleavage values, retold here.

Variants of B1 are the subject of the data set. Description: self-cleavage, relative activity (ratio to wild type); higher = more cleavage; in vitro, sequencing; the parent is a self-cleaving ribozyme.
UACGUAGGUGGUUUUCCCCUGAUAGUGCUAAGGGGGCCUGGAAGUUUGGACUGGGCAGAGCUCAACACAGCGUGGCAAAGUGGCUGUGGCUAGACUGCAUCUCUGGACUCCUCGUCACUCAGCAGGGCAUCUCUGAGAGAAAUGCC [C99A U108C]: the self-cleavage is 1.2.
With UACGUAGGUGGUUUUCCCCUGAUAGUGCUAAGGGGGCCUGGAAGUUUGGACUGGGCAGAGCUCAACACAGCGUGGCAAAGUGGCUGUGGCUAGACUGCCACUCUGGAUUCCUCGUCACUCAGCAGGGCAUCUCUGAGAGAAAUGCC [U100A], the self-cleavage came to 0.9.
In the case of UACGUAGGUGGUUUUCCCCUGAUAGUGCUAAGGGGGCCUGGAAGUUUGGACUGGGCAGAGCUCAACACAGCGUGGCAAAGUGGCUGUGGCUAGACUGCAUCUCUGGAUUCCUCGUCACUCAGCAGGGCUUCUCUGAGAGAAAUGCC [C99A A129U], the self-cleavage came to 0.46.
Take UACGUAGGUGGUUUUCCCCUGAUAGUGCUAAGGGGGCCUGGAAGUUUGGACUGGGCAGAGCUCAACACAGCGUGGCAAAGUGGCUGUGGCUAGACUGCUUCUCUGGAUUCCUCGUCACCCAGCAGGGCAUCUCUGAGAGAAAUGCC [C99U U119C]: the self-cleavage came to 0.96.
As to UACGUAGGUGGUUUUCCCCUGAUAGUGCUAAGGGGGCCUGGAAGUUUGGACUGGGCAGAGCUCAACACAGCGUGGCAAAGUGGCUGUGGCUAGACUGCUUCUCUGGAUUCCUCGUCACACAGCAGGGCAUCUCUGAGAGAAAUGCC [C99U U119A], the self-cleavage turned out to be 0.79.
The same measure for UACGUAGGUGGUUUUCCCCUGAUAGUGCUAAGGGGGCCUGGAAGUUUGGACUGGGCAGAGCUCAACACAGCGUGGCAAAGUGGCUGUGGCUAGACUGUCUCUCUGGAUUCCUCGUCACUCAGCAGGGCAUCUCCGAGAGAAAUGCC [C98U U134C]: 0.3; for UACGUAGGUGGUUUUCCCCUGAUAGUGCUAAGGGGGCCUGGAAGUUUGGACUGGGCAGAGCUCAACACAGCGUGGCAAAGUGGCUGUGGCUAGACUGCUUCUCUGGGUUCCUCGUCACUCAGCAGGGCAUCUCUGAGAGAAAUGCC [C99U A107G]: 0.83; for UACGUAGGUGGUUUUCCCCUGAUAGUGCUAAGGGGGCCUGGAAGUUUGGACUGGGCAGAGCUCAACACAGCGUGGCAAAGUGGCUGUGGCUAGACUGCUUCUCUGGAUUCCUCGUCACUCAGCAGGGCAUCUCUGAGAGAAAAGCC [C99U U143A]: 0.39.
Regarding UACGUAGGUGGUUUUCCCCUGAUAGUGCUAAGGGGGCCUGGAAGUUUGGACUGGGCAGAGCUCAACACAGCGUGGCAAAGUGGCUGUGGCUAGACUGCUUCUCUGGAUUCCUCGUCACUCAGCAGGGCAUCUCUGAGAGAGAUGCC [C99U A141G], the self-cleavage was 0.62.
UACGUAGGUGGUUUUCCCCUGAUAGUGCUAAGGGGGCCUGGAAGUUUGGACUGGGCAGAGCUCAACACAGCGUGGCAAAGUGGCUGUGGCUAGACUGCUUCUCUGGAUUCCUCGUCACUCAGCAGGGCAUCUCUGAGAGACAUGCC [C99U A141C]: the self-cleavage was found to be 0.55.
As for UACGUAGGUGGUUUUCCCCUGAUAGUGCUAAGGGGGCCUGGAAGUUUGGACUGGGCAGAGCUCAACACAGCGUGGCAAAGUGGCUGUGGCUAGACUGCCACUCUGGAUUCCUCGUCACUCAGCGGGGCAUCUCUGAGAGAAAUGCC [U100A A124G], the self-cleavage is 1.02.
With UACGUAGGUGGUUUUCCCCUGAUAGUGCUAAGGGGGCCUGGAAGUUUGGACUGGGCAGAGCUCAACACAGCGUGGCAAAGUGGCUGUGGCUAGACUGCUUCUCUGGAUUCCUCGUCACUCAGCAGGGCAUCUCUGAGAGAAGUGCC [C99U A142G], the self-cleavage was 0.58.
Turning to UACGUAGGUGGUUUUCCCCUGAUAGUGCUAAGGGGGCCUGGAAGUUUGGACUGGGCAGAGCUCAACACAGCGUGGCAAAGUGGCUGUGGCUAGACUGCAUCUCUGGAUUCCUCGUCACUCAGCAGGGCAUCUCUGGGAGAAAUGCC [C99A A136G], the self-cleavage came out at 0.99.
Take UACGUAGGUGGUUUUCCCCUGAUAGUGCUAAGGGGGCCUGGAAGUUUGGACUGGGCAGAGCUCAACACAGCGUGGCAAAGUGGCUGUGGCUAGACUGCAUCUCUGGAUUCCUCGUCACCCAGCAGGGCAUCUCUGAGAGAAAUGCC [C99A U119C]: the self-cleavage was found to be 0.82.
For UACGUAGGUGGUUUUCCCCUGAUAGUGCUAAGGGGGCCUGGAAGUUUGGACUGGGCAGAGCUCAACACAGCGUGGCAAAGUGGCUGUGGCUAGACUGCGUCUCUGGAUUCCUCGUCACUCAGCAGGGCGUCUCUGAGAGAAAUGCC [C99G A129G], the self-cleavage was 0.3.
Regarding UACGUAGGUGGUUUUCCCCUGAUAGUGCUAAGGGGGCCUGGAAGUUUGGACUGGGCAGAGCUCAACACAGCGUGGCAAAGUGGCUGUGGCUAGACUGCUUCUCUGGAUUCCUCGUCACUCAGCAGGGCAUCUCUGAGAGAAAUGUC [C99U C145U], the self-cleavage worked out at 0.82.
Regarding UACGUAGGUGGUUUUCCCCUGAUAGUGCUAAGGGGGCCUGGAAGUUUGGACUGGGCAGAGCUCAACACAGCGUGGCAAAGUGGCUGUGGCUAGACUGCAUCUCUGGAUCCCUCGUCACUCAGCAGGGCAUCUCUGAGAGAAAUGCC [C99A U109C], the self-cleavage was determined as 0.41.
For UACGUAGGUGGUUUUCCCCUGAUAGUGCUAAGGGGGCCUGGAAGUUUGGACUGGGCAGAGCUCAACACAGCGUGGCAAAGUGGCUGUGGCUAGACUGCUUCUCUGGAUUCCCCGUCACUCAGCAGGGCAUCUCUGAGAGAAAUGCC [C99U U112C], the self-cleavage came out at 0.36.
In the case of UACGUAGGUGGUUUUCCCCUGAUAGUGCUAAGGGGGCCUGGAAGUUUGGACUGGGCAGAGCUCAACACAGCGUGGCAAAGUGGCUGUGGCUAGACUGCUUCUCUGGAUUCCACGUCACUCAGCAGGGCAUCUCUGAGAGAAAUGCC [C99U U112A], the self-cleavage came to 1.12.
Regarding UACGUAGGUGGUUUUCCCCUGAUAGUGCUAAGGGGGCCUGGAAGUUUGGACUGGGCAGAGCUCAACACAGCGUGGCAAAGUGGCUGUGGCUAGACUGCUUCUCUGGAUUCCUCGUCACUCAGCAGGGCAUCUCAGAGAGAAAUGCC [C99U U134A], the self-cleavage amounted to 0.37.
